Measurements taken from US20250263444A1 (KOREA UNIVERSITY RESEARCH AND BUSINESS FOUNDATION SEJONG …, published 2025).

T1: vIRF3 mutant with deleted aa250-260 (Kaposi's sarcoma-associated herpesvirus …, UniProt F5HIC6 1-566)
T1 construct: V5-tagged, expressed in LECs; end of the protein at 566 from the TM3 range (430-566); also called vIRF3(Δ250-260)
T1 sequence: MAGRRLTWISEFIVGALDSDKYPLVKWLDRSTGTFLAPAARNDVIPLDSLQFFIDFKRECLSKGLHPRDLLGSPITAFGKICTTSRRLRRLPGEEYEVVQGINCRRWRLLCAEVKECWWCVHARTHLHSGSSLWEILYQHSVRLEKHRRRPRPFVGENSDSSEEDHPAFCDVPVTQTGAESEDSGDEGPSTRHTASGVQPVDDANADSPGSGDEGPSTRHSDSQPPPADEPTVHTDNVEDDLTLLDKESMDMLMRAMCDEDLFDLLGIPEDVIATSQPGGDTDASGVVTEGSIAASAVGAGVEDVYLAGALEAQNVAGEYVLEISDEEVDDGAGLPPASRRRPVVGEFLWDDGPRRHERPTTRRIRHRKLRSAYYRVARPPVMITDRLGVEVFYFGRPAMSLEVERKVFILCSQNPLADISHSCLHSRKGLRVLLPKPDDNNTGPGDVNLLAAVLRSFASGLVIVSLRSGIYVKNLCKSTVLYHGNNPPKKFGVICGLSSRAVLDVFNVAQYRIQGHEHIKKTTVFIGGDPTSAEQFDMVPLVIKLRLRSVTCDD

T2: vIRF3 (Δ250-280) mutant (Kaposi's sarcoma-associated herpesvirus …, UniProt F5HIC6 1-566)
T2 construct: V5-tagged, stably expressed in LECs; also called V5/vIRF3(Δ250-280); V5-vIRF3(Δ250-280)
T2 sequence: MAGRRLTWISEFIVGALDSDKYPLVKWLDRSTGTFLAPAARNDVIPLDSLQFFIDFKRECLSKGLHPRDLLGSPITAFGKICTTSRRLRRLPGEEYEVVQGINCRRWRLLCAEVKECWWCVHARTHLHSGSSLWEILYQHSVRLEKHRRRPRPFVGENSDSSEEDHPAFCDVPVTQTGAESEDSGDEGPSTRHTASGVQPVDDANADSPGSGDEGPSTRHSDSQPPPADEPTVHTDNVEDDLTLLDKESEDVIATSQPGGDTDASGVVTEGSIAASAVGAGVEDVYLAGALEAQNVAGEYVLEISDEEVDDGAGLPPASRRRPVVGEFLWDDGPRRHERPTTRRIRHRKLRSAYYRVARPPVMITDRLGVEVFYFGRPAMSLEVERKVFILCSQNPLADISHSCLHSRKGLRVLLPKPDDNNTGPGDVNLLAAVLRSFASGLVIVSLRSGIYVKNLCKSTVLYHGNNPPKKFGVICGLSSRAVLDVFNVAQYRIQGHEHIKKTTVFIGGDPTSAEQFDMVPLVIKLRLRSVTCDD

B1: pyruvate kinase M2 (PKM2) (enzyme)
chain: not shown
notes: Either endogenous PKM2 of LECs or HA-tagged hPKM2 from pCMV-HA-hPKM2 in 293T cells; also called PMK2; hPKM2
B2: Kaposi's sarcoma-associated herpesvirus (KSHV) viral interferon regulatory factor 3 (vIRF3), wild type (other)
chain: MAGRRLTWISEFIVGALDSDKYPLVKWLDRSTGTFLAPAARNDVIPLDSLQFFIDFKRECLSKGLHPRDLLGSPITAFGKICTTSRRLRRLPGEEYEVVQGINCRRWRLLCAEVKECWWCVHARTHLHSGSSLWEILYQHSVRLEKHRRRPRPFVGENSDSSEEDHPAFCDVPVTQTGAESEDSGDEGPSTRHTASGVQPVDDANADSPGSGDEGPSTRHSDSQPPPADEPTVHTDNVEDDLTLLDKESACALMYHVGQEMDMLMRAMCDEDLFDLLGIPEDVIATSQPGGDTDASGVVTEGSIAASAVGAGVEDVYLAGALEAQNVAGEYVLEISDEEVDDGAGLPPASRRRPVVGEFLWDDGPRRHERPTTRRIRHRKLRSAYYRVARPPVMITDRLGVEVFYFGRPAMSLEVERKVFILCSQNPLADISHSCLHSRKGLRVLLPKPDDNNTGPGDVNLLAAVLRSFASGLVIVSLRSGIYVKNLCKSTVLYHGNNPPKKFGVICGLSSRAVLDVFNVAQYRIQGHEHIKKTTVFIGGDPTSAEQFDMVPLVIKLRLRSVTCDD

Assays:
[1] = target: T1, vIRF3 mutant with deleted aa250-260; assay: IP with anti-PKM2, blot with anti-V5, LEC lysates
vIRF3 (Δ250-280) mutant = target: T2, vIRF3 (Δ250-280) mutant; assay: told in words; LECs expressing the mutant
[2] = target: B1; assay: cell-based or functional assay

Question: Does B1 bind [1]?
Answer: no binding

Question: Does B1 bind (vIRF3 (Δ250-280) mutant)?
Answer: no binding

Question: How did the “Boyden chamber cell migration of LECs” value [2] turn out when B2 was run?
Answer: 2 fold
